Source: patent US20260125477A1

Tests used:
[1] = target: human B7-H3 on B7-H3+ cells (human) (UniProt Q5ZPR3); experiment: FACS, mature human dendritic cells derived from PBMC (B7-H3+ normal cells)
[2] = target: human B7-H3 on B7-H3+ cells (human) (UniProt Q5ZPR3); experiment: FACS, SK-OV-3 cells (B7-H3+ tumor cells)
[3] = target: human B7-H3 on B7-H3+ cells (human) (UniProt Q5ZPR3); experiment: FACS, MCF-7 cells (B7-H3+ tumor cells)
[4] = target: human B7-H3 on B7-H3+ cells (human) (UniProt Q5ZPR3); experiment: FACS, NCI-H520 cells (B7-H3+ tumor cells)
[5] = target: human B7-H3 on B7-H3+ cells (human) (UniProt Q5ZPR3); experiment: FACS, HepG2 cells (B7-H3+ tumor cells)
[6] = target: human B7-H3 on B7-H3+ cells (human) (UniProt Q5ZPR3); experiment: FACS, human prostate smooth muscle cells (B7-H3+ normal cells)
[7] = target: human B7-H3 on B7-H3+ cells (human) (UniProt Q5ZPR3); experiment: FACS, NCI-H520 cells (B7-H3+ tumor cells) [Continued) C]
[8] = target: human B7-H3 on B7-H3+ cells (human) (UniProt Q5ZPR3); experiment: FACS, human dermal fibroblasts (B7-H3+ normal cells)
[9] = target: human B7-H3 on B7-H3+ cells (human) (UniProt Q5ZPR3); experiment: FACS, HUVEC cells (human B7-H3-expressing)
[10] = target: human B7-H3 on B7-H3+ cells (human) (UniProt Q5ZPR3); experiment: FACS, A549 cells (B7-H3+ tumor cells)
[11] = target: human B7-H3 on B7-H3+ cells (human) (UniProt Q5ZPR3); experiment: FACS, NCI-H520 cells (B7-H3+ tumor cells) [Continued) D]

Chain of human B7-H3 on B7-H3+ cells (human) (Q5ZPR3 29-534): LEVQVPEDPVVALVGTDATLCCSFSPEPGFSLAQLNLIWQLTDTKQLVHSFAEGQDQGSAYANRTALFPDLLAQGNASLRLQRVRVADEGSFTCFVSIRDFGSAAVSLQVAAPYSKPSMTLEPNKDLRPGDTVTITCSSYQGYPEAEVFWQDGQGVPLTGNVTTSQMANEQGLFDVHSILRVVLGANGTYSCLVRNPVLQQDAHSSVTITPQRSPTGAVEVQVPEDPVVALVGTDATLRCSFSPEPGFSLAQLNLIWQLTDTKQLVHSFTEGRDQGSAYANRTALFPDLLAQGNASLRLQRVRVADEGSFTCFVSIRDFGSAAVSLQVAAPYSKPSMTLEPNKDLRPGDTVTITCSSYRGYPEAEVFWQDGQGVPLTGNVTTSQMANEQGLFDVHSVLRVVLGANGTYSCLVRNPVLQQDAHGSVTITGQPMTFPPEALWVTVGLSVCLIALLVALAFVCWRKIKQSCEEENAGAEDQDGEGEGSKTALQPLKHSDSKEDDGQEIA

B1: 6B5 (antibody, human IgG1, kappa, V domains shown)
VH: QVQLVESGPGLVKPSQTLSLTCTVSDGSISSGGYYWSWIRQHPGKGLEWIGYIYYSGGTYYSPSLKSRVTISVDTSKNQFSLKLTSVTAADTAVYYCARRAGYSSSFDSWGQGILVTVSS
VL: EIVLTQSPLSLPVTPGEPASISCRSSQSLLYSNGYTYLDWYLQKPGQSPQFLIYLGFNRASGVPDRFSGSGSGTDFTLKISRVEAEDVGVYYCMQGLQTPYTFGQGTKLEIKR
- EC50 (read off the curve) [1]: 1 µg/mL
- EC50 (read off the curve) [2]: 0.7 µg/mL
- EC50 (read off the curve) [3]: 0.4 µg/mL
- EC50 (read off the curve) [4]: 0.3 µg/mL
- EC50 (read off the curve) [5]: 0.6 µg/mL
- EC50 (read off the curve) [6]: 0.3 µg/mL
- EC50 (read off the curve) [7]: 0.1 µg/mL
- EC50 (read off the curve) [8]: 0.4 µg/mL
- EC50 (read off the curve) [9]: 0.4 µg/mL
- EC50 (read off the curve) [10]: 2 µg/mL

B2: Enoblituzumab (antibody, human IgG1, kappa, V domains shown)
VH: EVQLVESGGGLVQPGGSLRLSCAASGFTFSSFGMHWVRQAPGKGLEWVAYISSDSSAIYYADTVKGRFTISRDNAKNSLYLQMNSLRDEDTAVYYCGRGRENIYYGSRLDYWGQGTTVTVSS
VL: DIQLTQSPSFLSASVGDRVTITCKASQNVDTNVAWYQQKPGKAPKALIYSASYRYSGVPSRFSGSGSGTDFTLTISSLQPEDFATYYCQQYNNYPFTFGQGTKLEIKR
- EC50 (read off the curve) [1]: 0.3 µg/mL
- EC50 (read off the curve) [4]: 0.3 µg/mL
- EC50 (read off the curve) [6]: 0.1 µg/mL
- EC50 (read off the curve) [8]: 0.2 µg/mL

B3: 6B5-Mut (antibody, human IgG1, kappa)
heavy: QVQLVESGPGLVKPSQTLSLTCTVSDGSISSGGYYWSWIRQHPGKGLEWIGYIYYSGGTYYSPSLKSRVTISVDTSKNQFSLKLTSVTAADTAVYYCARRAGYSSSFDSWGQGILVTVSSASTKGPSVFPLAPSSKSTSGGTAALGCLVKDYFPEPVTVSWNSGALTSGVHTFPAVLQSSGLYSLSSVVTVPSSSLGTQTYICNVNHKPSNTKVDKRVEPKSCDKTHTCPPCPAPELVGGPSVFLLPPKPKDTLMISRTPEVTCVVVDVSHEDPEVKFNWYVDGVEVHNAKTKPPEEQYNSTLRVVSVLTVLHQDWLNGKEYKCKVSNKALPAPIEKTISKAKGQPREPQVYTLPPSREEMTKNQVSLTCLVKGFYPSDIAVEWESNGQPENNYKTTPLVLDSDGSFFLYSKLTVDKSRWQQGNVFSCSVMHEALHNHYTQKSLSLSPGK
light: EIVLTQSPLSLPVTPGEPASISCRSSQSLLYSNGYTYLDWYLQKPGQSPQFLIYLGFNRASGVPDRFSGSGSGTDFTLKISRVEAEDVGVYYCMQGLQTPYTFGQGTKLEIKRTVAAPSVFIFPPSDEQLKSGTASVVCLLNNFYPREAKVQWKVDNALQSGNSQESVTEQDSKDSTYSLSSTLTLSKADYEKHKVYACEVTHQGLSSPVTKSFNRGEC
- EC50 (read off the curve) [7]: 0.2 µg/mL
- EC50 (read off the curve) [9]: 0.4 µg/mL

B4: 10D7-Mut (antibody, human IgG1, kappa)
heavy: QVQLVQSGPGLVKPSETLSLTCTVSGGSISRSSYYWGWIRQPPGKGLEWIGNIFYAGSTYYNPSLKSRVTISVDTSKNQFSLKLSSVTAADTAVYYCARRITGTTGWFDPWGQGTLVTVSSASTKGPSVFPLAPSSKSTSGGTAALGCLVKDYFPEPVTVSWNSGALTSGVHTFPAVLQSSGLYSLSSVVTVPSSSLGTQTYICNVNHKPSNTKVDKRVEPKSCDKTHTCPPCPAPELVGGPSVFLLPPKPKDTLMISRTPEVTCVVVDVSHEDPEVKFNWYVDGVEVHNAKTKPPEEQYNSTLRVVSVLTVLHQDWLNGKEYKCKVSNKALPAPIEKTISKAKGQPREPQVYTLPPSREEMTKNQVSLTCLVKGFYPSDIAVEWESNGQPENNYKTTPLVLDSDGSFFLYSKLTVDKSRWQQGNVFSCSVMHEALHNHYTQKSLSLSPGK
light: DIQLTQSPSSLSASVGDRVTITCRASQGIRNDLGWYQQKPGKAPKLLIYAASTLQSGVPSRFSGSGSGTDFTLTISSLQPEDFATYYCLQDYNYPRTFGQGTKVEIKRTVAAPSVFIFPPSDEQLKSGTASVVCLLNNFYPREAKVQWKVDNALQSGNSQESVTEQDSKDSTYSLSSTLTLSKADYEKHKVYACEVTHQGLSSPVTKSFNRGEC
- EC50 (read off the curve) [11]: 0.03 µg/mL
- EC50 (read off the curve) [9]: 0.05 µg/mL

B5: 10D7 (antibody, human IgG1, kappa, V domains shown)
VH: QVQLVQSGPGLVKPSETLSLTCTVSGGSISRSSYYWGWIRQPPGKGLEWIGNIFYAGSTYYNPSLKSRVTISVDTSKNQFSLKLSSVTAADTAVYYCARRITGTTGWFDPWGQGTLVTVSS
VL: DIQLTQSPSSLSASVGDRVTITCRASQGIRNDLGWYQQKPGKAPKLLIYAASTLQSGVPSRFSGSGSGTDFTLTISSLQPEDFATYYCLQDYNYPRTFGQGTKVEIKR
- EC50 (read off the curve) [1]: 0.06 µg/mL
- EC50 (read off the curve) [2]: 0.7 µg/mL
- EC50 (read off the curve) [4]: 0.3 µg/mL
- EC50 (read off the curve) [5]: 0.4 µg/mL
- EC50 (read off the curve) [11]: 0.03 µg/mL
- EC50 (read off the curve) [9]: 0.05 µg/mL
